# ± gives the uncertainty stated by the source.
# B1: E3 ubiquitin-protein ligase NEDD4-like, residues 539 to 589; numbered along this chain, Q96PU5 (parent)
# chain: KTSLNPNDLGPLPPGWEERIHLDGRTFYIDHNSKITQWEDPRLQNPAITGP
# Variants of: B1
# Experiment: abundance fitness (aPCA) (normalised: wild type 0, dead -1); higher = more abundant; growth selection in yeast, the domain comes from the species named
# Settings: Homo sapiens
row,Variant,abundance fitness
1,S3V,-0.353 ± 0.043
2,S3Y,-0.046 ± 0.081
3,S3W,-0.86 ± 0.086
4,P11C,-0.178 ± 0.056
5,P11G,-0.19 ± 0.055
6,P11E,-0.044 ± 0.067
7,P11D,-0.025 ± 0.083
8,P11L,-0.41 ± 0.063
9,P11Y,-0.601 ± 0.18
10,P11R,-0.168 ± 0.045
11,P11F,-0.426 ± 0.059
12,P11T,-0.127 ± 0.074
13,P11V,-0.221 ± 0.044
14,P11N,-0.177 ± 0.098
15,P11W,-0.613 ± 0.082
16,P11I,-0.322 ± 0.061
17,P11H,-0.586 ± 0.12
18,P11M,-0.232 ± 0.057
19,P11A,0.022 ± 0.061
20,E17A,-0.705 ± 0.051
21,E17M,-0.821 ± 0.08
22,E17Q,-0.361 ± 0.1
23,E17H,-0.157 ± 0.12
24,E17D,-0.606 ± 0.064

row,Variant,abundance fitness
1,E17L,-0.856 ± 0.07
2,E17N,-0.61 ± 0.056
3,E17F,-0.753 ± 0.14
4,E17R,-0.746 ± 0.046
5,E17K,-0.571 ± 0.051
6,E17P,-0.877 ± 0.19
7,E17S,-0.246 ± 0.055
8,E17T,-0.628 ± 0.069
9,E17I,-0.432 ± 0.11
10,E17Y,-0.986 ± 0.14
11,E17C,-0.457 ± 0.047
12,E17V,-0.477 ± 0.065
13,L4W,-0.283 ± 0.045
14,L4C,-0.252 ± 0.056
15,L4P,-0.281 ± 0.061
16,L4V,-0.139 ± 0.044
17,L4F,-0.003 ± 0.081
18,L4Y,-0.105 ± 0.1
19,L4K,0.116 ± 0.066
20,L4H,-0.242 ± 0.1
21,L4A,-0.205 ± 0.046
22,L4G,-0.12 ± 0.043
23,L4S,-0.07 ± 0.048
24,L4E,-0.143 ± 0.076

row,Variant,abundance fitness
1,L4I,-0.136 ± 0.1
2,L4Q,-0.024 ± 0.081
3,L4N,-0.295 ± 0.094
4,L4R,-0.241 ± 0.047
5,L4D,-0.108 ± 0.073
6,L4T,-0.303 ± 0.071
7,P14Q,-0.17 ± 0.11
8,P14E,0.009 ± 0.048
9,P14K,-0.044 ± 0.044
10,P14V,-0.122 ± 0.056
11,P14M,-0.256 ± 0.076
12,P14A,0.008 ± 0.066
13,P14D,0.023 ± 0.084
14,P14R,-0.085 ± 0.049
15,P14I,-0.227 ± 0.066
16,P14W,-0.433 ± 0.1
17,P14T,-0.118 ± 0.068
18,P14N,-0.355 ± 0.12
19,P14H,-0.159 ± 0.067
20,P14S,-0.042 ± 0.054
21,P14F,-0.066 ± 0.091
22,P14L,-0.204 ± 0.046
23,P14G,-0.205 ± 0.067
24,P14C,-0.1 ± 0.068

row,Variant,abundance fitness
1,P14Y,-0.066 ± 0.098
2,H21T,0.087 ± 0.072
3,H21D,0.101 ± 0.053
4,H21I,-0.478 ± 0.12
5,H21P,-0.693 ± 0.14
6,H21W,-0.051 ± 0.077
7,H21Y,-0.151 ± 0.069
8,H21M,-0.124 ± 0.086
9,H21A,0.102 ± 0.062
10,H21S,0.221 ± 0.053
11,H21E,-0.052 ± 0.057
12,H21R,-0.149 ± 0.064
13,H21N,-0.244 ± 0.11
14,H21F,-0.439 ± 0.11
15,H21K,-0.178 ± 0.097
16,H21C,0.057 ± 0.048
17,H21V,-0.296 ± 0.046
18,H21G,0.166 ± 0.046
19,H21L,-0.289 ± 0.064
20,D23K,-0.333 ± 0.088
21,D23I,-0.725 ± 0.067
22,D23Q,-0.252 ± 0.089
23,D23F,-1.12 ± 0.16
24,D23T,-0.031 ± 0.073

row,Variant,abundance fitness
1,D23R,-0.645 ± 0.059
2,D23L,-0.548 ± 0.068
3,D23C,-0.135 ± 0.057
4,D23E,-0.584 ± 0.085
5,D23M,-0.5 ± 0.056
6,D23V,-0.876 ± 0.055
7,D23N,-0.064 ± 0.065
8,D23P,-0.445 ± 0.069
9,D23Y,-0.715 ± 0.054
10,D23S,-0.036 ± 0.06
11,D23H,-0.593 ± 0.062
12,D23A,-0.779 ± 0.079
13,D23G,-0.388 ± 0.056
14,G10P,-0.347 ± 0.046
15,G10K,-0.238 ± 0.078
16,G10Q,-0.276 ± 0.049
17,G10D,-0.24 ± 0.058
18,G10M,-0.485 ± 0.07
19,G10A,-0.076 ± 0.041
20,G10C,-0.28 ± 0.079
21,G10Y,-0.571 ± 0.12
22,G10I,-0.508 ± 0.13
23,G10R,-0.263 ± 0.056
24,G10N,0.139 ± 0.092

row,Variant,abundance fitness
1,G10S,-0.268 ± 0.059
2,G10T,-0.15 ± 0.074
3,G10L,-0.429 ± 0.043
4,G10V,-0.181 ± 0.045
5,G10W,-0.433 ± 0.048
6,G10H,-0.53 ± 0.12
7,P13V,-1.1 ± 0.082
8,P13F,-0.616 ± 0.063
9,P13D,-0.322 ± 0.095
10,P13E,-0.506 ± 0.053
11,P13C,-0.766 ± 0.07
12,P13T,-1 ± 0.12
13,P13L,-0.745 ± 0.056
14,P13Q,-0.585 ± 0.097
15,P13H,-1.04 ± 0.19
16,P13N,-0.437 ± 0.12
17,P13S,-0.605 ± 0.058
18,P13A,-0.495 ± 0.066
19,P13Y,-0.023 ± 0.1
20,P13M,-0.799 ± 0.058
21,P13K,-0.559 ± 0.085
22,P13I,-0.933 ± 0.14
23,P13R,-0.698 ± 0.05
24,I20H,-0.125 ± 0.11

row,Variant,abundance fitness
1,I20C,0.192 ± 0.096
2,I20R,-0.006 ± 0.065
3,I20F,-0.246 ± 0.092
4,I20G,-0.289 ± 0.052
5,I20N,-0.467 ± 0.12
6,I20A,-0.069 ± 0.048
7,I20Y,-0.164 ± 0.051
8,I20V,0.093 ± 0.048
9,I20S,0.047 ± 0.064
10,I20L,-0.024 ± 0.062
11,I20M,-0.131 ± 0.076
12,I20Q,-0.148 ± 0.11
13,I20E,0.022 ± 0.089
14,I20K,0.209 ± 0.075
15,I20P,-0.226 ± 0.1
16,I20W,-0.228 ± 0.08
17,W16N,-0.222 ± 0.1
18,W16Y,-0.41 ± 0.098
19,W16D,-0.353 ± 0.065
20,W16H,-0.386 ± 0.059
21,W16P,-0.385 ± 0.081
22,W16L,-0.509 ± 0.043
23,W16A,-0.342 ± 0.045

# — the Human Domainome abundance scans (Beltran et al. 2025)
